Experimental data reported in PMC4673130.

Target: T1, HA-tetherin (wild type), Q10589
T1 chain: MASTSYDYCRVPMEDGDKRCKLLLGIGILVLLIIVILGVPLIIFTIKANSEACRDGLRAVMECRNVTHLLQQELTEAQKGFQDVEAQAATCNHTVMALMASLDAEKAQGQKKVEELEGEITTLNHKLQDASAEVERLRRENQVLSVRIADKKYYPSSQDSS
Experiment: non-reducing SDS-PAGE and immunoblot; lysates of HEK293 cells transfected with HA-tetherin with or without SHBs plasmids; SDS-PAGE in the absence or presence of 2-mercaptoethanol, blot with anti-HA; dimer and monomer bands
Conditions: remark: other sources report otherwise

B1: HA-tetherin (wild type), Q10589 1-161 (natural protein)
chain: T1 chain
Q: How did the stoichiometry N turn out when B1 was run?
A: Its stoichiometry N is 2.
